Measurements published in US20240209041A1 (SRI INTERNATIONAL, published 2024).
Primed or numbered codes have the meaning given here. [ ]: non-standard residue; d: D form. PEG11′ = not defined here

Target: purified EphA2 (UniProt P29317 25-534, limits assumed)
Assay: binding to purified EphA2; method not stated

Chain of purified EphA2 (P29317 25-534 limits assumed): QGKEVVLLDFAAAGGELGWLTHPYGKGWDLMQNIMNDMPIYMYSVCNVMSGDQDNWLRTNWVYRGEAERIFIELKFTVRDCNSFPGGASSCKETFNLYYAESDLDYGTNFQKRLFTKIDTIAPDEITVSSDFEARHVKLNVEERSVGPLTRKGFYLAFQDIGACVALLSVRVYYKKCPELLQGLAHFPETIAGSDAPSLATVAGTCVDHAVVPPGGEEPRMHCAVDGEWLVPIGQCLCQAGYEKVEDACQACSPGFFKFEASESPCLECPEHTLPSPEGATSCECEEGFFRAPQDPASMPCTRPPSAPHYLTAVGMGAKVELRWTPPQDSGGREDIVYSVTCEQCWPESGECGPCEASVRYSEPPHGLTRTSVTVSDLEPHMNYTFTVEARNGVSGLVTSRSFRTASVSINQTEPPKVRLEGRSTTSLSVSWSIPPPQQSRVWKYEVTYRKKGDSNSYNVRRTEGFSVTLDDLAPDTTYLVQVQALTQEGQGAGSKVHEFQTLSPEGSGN

B1: MGS_H1299.2 V4 (peptide)
peptide: Ac-YAAWPASGAWT[PEG11′]C-NH2
notes: Optimized MGS peptide from phage display (parent H1299.2); also called MGS_1299.2 V4
Question: With B1 as the binder, how does the Kd read?
Answer: Its Kd is 3.2 nM.
